Reference: patent US20150038427A1

Target: collagen
Experiment: SPR (Biacore 2000), collagen immobilised on CM-3 chip, peptide as analyte, from on-off binding kinetics

## RRANAALKAGELYKSILYGC [peptide … (SILY)]
  Kd: 1.2 µM
